A short description of one series: Stability in plasma, dog. The class given is in vitro ADME. To be noted: for half-life: 37° C., read-out: Mean T1/2 (converted). How it is done: Working solutions of test compounds were prepared in PBS (pH 7.4). Propantheline was used as positive control for human, monkey, dog and mouse plasma in the assay. Mevinolin was used as positive control for rat plasma in this assay. 1 mM propantheline working solution was prepared in acetonitrile. 1 mM mevinolin working solution was prepared in DMSO. Incubation buffer of 475 μL plasma for each cell was added into the incubation plate and pre-warmed at 37° C. for 15 minutes. After the pre-incubation, 25 μL of working solution (test compounds or control compounds) was spiked to plasma. For Compound 5 and Compound 3, the final concentration of organic concentration was 0%. For Taxol, the final concentration of organic solvents was 0.25%. The assay was performed in duplicate. The reaction samples were incubated at 37° C. Aliquots of 50 μL were taken from the reaction samples at 0, 0.25, 0.5, 1, 2, 4, 6, 8 and 24 hours. The reactions were stopped by the addition of 450 μL of ice-cold quench solution (methanol with 2% FA containing internal standards). All samples were vortexed for 10 minutes, following by centrifugation at 3,220 g for 30 minutes to precipitate proteins. 100 μL of the supernatant from each well was transferred to a new plate. The supernatant was diluted with ultrapure water. Samples were analyzed by LC-MS/MS. All calculations were carried out using Microsoft Excel. Peak area ratios were determined from extracted ion chromatograms. Percent compounds remaining at each time point were calculated by the following equation: Remaining Percentaget min(%)=Peak Area Ratiot min/Peak Area Ratio0 min×100
Peak Area Ratiot min is peak area ratio of control and test compounds at t min; and
Peak Area Ratio0 min is peak area ratio of control and test compounds at zero time point.
(§1) The slope value, k, was determined by linear regression of the natural logarithm of the remaining percentage of the parent drug vs. incubation time curve.
The in vitro half-life (in vitro t1/2) was determined from the slope value: in vitro t1/2=(0.693/k)

The nature of series [1]: Safety: animal body weight change after dosing, tumor bearing mice. To be noted: for Weight on day 21 (MEAN ± SD) / Weight on day 0 (MEAN ± SD): IP Q5D (day 0, 5, 10); for Weight on day 21 (MEAN ± SD) / Weight on day 0 (MEAN ± SD) / Weight gain (%): Taxol 10 mg/kg; for Weight on day 0 (MEAN ± SD): baseline; for Weight gain (%): day 0 to day 21, IP Q5D. From the text:
Animals: Female athymic nude mice were used in this study. The experimental mice were purchased from Shibefu (Beijing) Biotechnology Co., Ltd. (QC number: SCXK Beijing 2019-0010) and maintained in a High Efficiency Particulate Air Filter (HEPA) filtered environment with cages, food and bedding sterilized by irradiation or autoclaving.
Establishment of peritoneal disseminated metastasis model of human ovarian cancer: Human ovarian cancer (SKOV-3-GFP) cells in logarithmic growth period were digested with 0.25% trypsin, rinsed with phosphate buffer (PBS) twice, centrifuged, and suspended with serum-free RPMI1640 medium. Cell suspension (6×10^6/120 μL/mouse) was injected into the peritoneal cavity of each experimental mouse for the establishment of peritoneal disseminated metastasis model of human ovarian cancer.
Groups, testing articles and treatment protocols: Day 4 after cell inoculation, all mice were subjected to systemic imaging using FluorVivo Model-100 (INDEC biosystems, CA, USA). Mice with a small deviation from average tumor load were enrolled in the study. All animals were randomly allocated to the different study groups, 6 mice in each group. Dosing schedule was Q5D (day 0, 5, 10), dosing volume was 10 μl/g, and administration route was intraperitoneal injection. Each dose of Compound 3 or Compound 5 was 9.6 mg/kg (equimolar to 2.5 mg/kg Taxol) and each dose of Taxol was 10 mg/kg. Taxol working solutions were prepared from 6 mg/mL stock solution, while Compounds were dissolved in PBS (pH 7.4) and filtered through 0.22 μm filter.
Monitoring of the experimental mice: During the period of the study, all experimental mice were checked daily for mortality or signs of morbidity. Images of tumor progression were acquired three times a week during the period of the study with the FluorVivo imaging system, Model 100/Mag (INDEC BioSystems, CA, USA). The body weights of the mice were measured three times a week during the period of the study.
Study endpoint: On Day 21 after administration, animals were euthanized by inhalation of excessive anesthetics. All tumors were exposed for imaging (under the same exposure conditions), after which the tumors were removed and weighed with an electronic balance (Sartorius BS 124 S, Germany). The tumor samples were then stored in formalin solution.
Statistical methods used in efficacy evaluation: Comparison of body weights and tumor burdens in different groups were analyzed using EXCEL t-test with an α=0.05 (two-sided).

A short description of a further series: Stability in buffer. The class given is physicochemical. To be noted: for half-life at 5 μM: buffer solution, read-out: Mean T 1/2 (converted). How it is done:
Working solutions of Compound 5 (1 mM of) and Compound 3 (1 mM) were prepared. Buffer solution (199 μL) was prepared and divided into fourteen incubation tubes. The tubes were then pre-warmed at 37° C. for 15 minutes. The 1 mM Compound 5 working solution was added to seven incubation tubes (1 μL each) for a final concentration of 5 μM and the 1 mM Compound 3 working solution was added to seven incubation tubes (1 μL each) for a final concentration of 5 μM. For Compound 5, the final concentration of organic solvents was 0.5%. Each samples was incubated at 37° C. for 0, 4, 8, 24, 48, 72, or 120 hours. The assay was performed in duplicate. After incubation for 0, 4, 8, 24, 48, 72 or 120 hours, reactions were quenched by the addition of 1000 μL methanol (pre-cool treatment under 4° C.) with 2% FA containing internal standards. All samples were vortexed for 10 minutes. 150 μL of the supernatant from each sample was transferred to a new plate. 150 μL of pure water was added to each sample for analysis by LC-MS/MS (cooler temperature: 15° C.). All calculations were carried out using Microsoft Excel. Peak area ratios were determined from extracted ion chromatograms. Percent compounds remaining at each time point were calculated by the following equation: Remaining Percentaget min(%)=(Peak Area Ratiot min/Peak Area Ratio0 min)×100
Peak Area Ratiot min is peak area ratio of test compounds at t min; and
Peak Area Ratio0 min is peak area ratio of test compounds at zero time point.
as §1
The in vitro half-life (in vitro t1/2) was determined from the slope value: in vitro t1/2=(0.693/k) Appearance of Taxol concentration (nM)=Peak Area Ratio t min/Peak Area Ratio(Taxol: 5 μM)×5000% Appearance of Taxol=Peak Area Ratio min/Peak Area Ratio(Taxol: 5 μM)×100

[2] abbreviates: Table 7A (Compound 3 set), Compd 3 9.6 mg/kg.
Where [3] appears, read: separate experiment, 38.4 mg/kg, 3 Q5D doses, tumor bearing mice.
Where [4] appears, read: Table 7B (Compound 5 set), Compd 5 9.6 mg/kg.

Like-named read-outs stand apart in the source and are kept apart here.

Results on two compounds are retold here after patent US12337037B2, “Taxol conjugate compounds, pharmaceutical compositions comprising the same, and methods for their use” (N1 Life, Inc, priority 2021, dated 2025).

`CC(=O)N[C@@H](CSSCCCC(=O)OC(C(=O)O[C@H]1C[C@@]2(O)[C@@H](OC(=O)c3ccccc3)[C@@H]3[C@]4(OC(C)=O)CO[C@@H]4C[C@H](O)[C@@]3(C)C(=O)[C@H](OC(C)=O)C(=C1C)C2(C)C)[C@@H](NC(=O)c1ccccc1)c1ccccc1)C(=O)N[C@H](CCCNC(=N)N)C(=O)N[C@H](CCCNC(=N)N)C(=O)N[C@H](CCCNC(=N)N)C(=O)N[C@H](CCCNC(=N)N)C(=O)N[C@H](CCCNC(=N)N)C(=O)N[C@H](CCCNC(=N)N)C(=O)N[C@H](CCCNC(=N)N)C(=O)N[C@H](CCCNC(=N)N)C(N)=O` (stereo partly drawn) [Compound 3, Ac-L-Cysteine (paclitaxel-4-mercaptobutanoate)-D-Arginine8-NH2]: the “Percent Increase of T1/2, Compound 3 over Compound 5” value is recorded as 1% in “Stability in plasma, dog”; 6.05% in “Stability in buffer” (buffer pH 5.5); 6.36% in the series “Stability in buffer” (buffer pH 6.0); 8.01% in “Stability in buffer” (buffer pH 6.5); 10.67% in “Stability in buffer” (buffer pH 7.4). Further, the half-life in “Stability in plasma, dog” is 2.79 h. The “body weight higher compared with the vehicle (PBS) group” value in series [1] (9.6 mg/kg IP Q5D, end of experiment) is given as “about 24%”. Moreover, the “Weight on day 21 (MEAN ± SD)” value in series [1] (setting [2]) is 18.5 ± 1.4. The “Weight on day 0 (MEAN ± SD)” value in series [1] (setting [2]) came out at 16.3 ± 1.0. Also, the “Weight gain (%)” value in series [1] (setting [2]) is listed as “about 13%”; in series [1] (Table 7A (Compound 3 set), Compd 3 9.6 mg/kg, listed as Compd 3), 13%. Besides, the animal deaths result in series [1] (setting [3]) was “no animal deaths were reported”. Also, in series [1] (setting [3]), the “body weight change on Day 21” value was “+22.1%”. Moreover, the half-life at 5 μM in “Stability in buffer” (buffer pH 5.5, 37° C.) is 125 h; in the series “Stability in buffer” (buffer pH 6.0, 37° C.), 99.5 h; in “Stability in buffer” (buffer pH 6.5, 37° C.) it was 92.3 h; in “Stability in buffer” (buffer pH 7.4, 37° C.) it was 54.6 h.

For the compound `CC(=O)N[C@H](CSSCCCC(=O)O[C@@H](C(=O)O[C@H]1C[C@@]2(O)[C@@H](OC(=O)c3ccccc3)[C@@H]3[C@]4(OC(C)=O)CO[C@@H]4C[C@H](O)[C@@]3(C)C(=O)[C@H](OC(C)=O)C(=C1C)C2(C)C)[C@@H](NC(=O)c1ccccc1)c1ccccc1)C(=O)N[C@H](CCCNC(=N)N)C(=O)N[C@H](CCCNC(=N)N)C(=O)N[C@H](CCCNC(=N)N)C(=O)N[C@H](CCCNC(=N)N)C(=O)N[C@H](CCCNC(=N)N)C(=O)N[C@H](CCCNC(=N)N)C(=O)N[C@H](CCCNC(=N)N)C(=O)N[C@H](CCCNC(=N)N)C(N)=O` [Compound 5, Ac-D-Cysteine (paclitaxel-4-mercaptobutanoate)-D-Arginine8-NH2], in “Stability in plasma, dog”, the half-life is 2.76 h. Further, the “Weight on day 21 (MEAN ± SD)” value in series [1] (setting [4]) is on record as 16.9 ± 1.1. Also, the “Weight on day 0 (MEAN ± SD)” value in series [1] (setting [4]) is given as 16.9 ± 0.6. The “Weight gain (%)” value is “no change in body weight” in series [1] (setting [4]) and 0% in series [1] (Table 7B (Compound 5 set), Compd 5 9.6 mg/kg, listed as Compd 5). The animal deaths result in series [1] (setting [3]) is “One mouse in this group was found dead on Day 18”. In addition, the “body weight change on Day 21” value in series [1] (setting [3]) is recorded as −2%. The “clinical signs after administration” value in series [1] (setting [3]) was “recumbent and their voluntary activities were reduced”. Moreover, the half-life at 5 μM in the series “Stability in buffer” (buffer pH 5.5, 37° C.) is 117 h; in the series “Stability in buffer” (buffer pH 6.0, 37° C.), 93.5 h; in the series “Stability in buffer” (buffer pH 6.5, 37° C.), 85.4 h; in “Stability in buffer” (buffer pH 7.4, 37° C.), 49.4 h.
